How the values were obtained:
[1] = biological target: T1, RXRalpha (Mus musculus, UniProt P28700 P28700:1-467); test: EMSA; homodimer, no PPAR; settings: tags: rabbit reticulocyte lysate (Promega); label: 32P (T4-PNK)
T1 sequence: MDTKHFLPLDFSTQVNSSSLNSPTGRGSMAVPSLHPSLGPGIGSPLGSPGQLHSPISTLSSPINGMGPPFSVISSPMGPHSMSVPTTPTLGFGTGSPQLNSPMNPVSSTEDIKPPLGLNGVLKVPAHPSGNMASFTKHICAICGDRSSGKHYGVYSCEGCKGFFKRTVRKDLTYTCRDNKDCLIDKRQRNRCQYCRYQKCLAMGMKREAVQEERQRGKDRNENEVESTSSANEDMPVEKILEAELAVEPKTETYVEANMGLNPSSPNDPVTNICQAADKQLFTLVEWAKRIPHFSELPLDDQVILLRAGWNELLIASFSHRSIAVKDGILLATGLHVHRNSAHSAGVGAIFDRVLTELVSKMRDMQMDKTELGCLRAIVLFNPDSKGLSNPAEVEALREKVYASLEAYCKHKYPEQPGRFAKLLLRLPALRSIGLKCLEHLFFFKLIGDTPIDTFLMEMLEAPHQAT
Procedure: (§1) To analyze whether PPARγ could bind to a PPRE, classically composed of direct repeats spaced by one intervening nucleotide (DR-1), EMSA was performed using in vitro transcribed/translated PPARγ2 protein. An oligonucleotide containing a high affinity PPRE, previously identified in the apoA-II promoter J site, was used in EMSA (29).
(§2) 7. Electrophoretic Mobility Shift Assays (EMSA) and Oligonucleotide Sequences haPPARγ (39), hPPARγ2, and mRXRα (40) proteins were synthesized in vitro in rabbit reticulocyte lysate (Promega). Molecular weights and quality of the in vitro translated proteins were verified by SDS-PAGE. PPAR (2 μl) and/or RXR (2 μl) were incubated for 15 min on ice in a total volume of 20 μl with 1-ng probe, 2.5 μg of poly(dI-dC) and 1 μg of herring sperm DNA in binding buffer (10 mM Tris-HCl pH 7.9, 40 mMKCl, 10% glycerol, 0.05% Nonidet P-40, and 1 mM dithiothreitol). For competition experiments, increasing amounts (from 10- to 200-fold molar excess) of cold oligonucleotide (AII-J-PPRE, 5'-[…]-3' (41) SEQ ID NO: 24; acyl-CoA oxidase (ACO)-PPRE, 5'-[…]-3' (42) SEQ ID NO: 25; or LPL-PPRE, 5'-[…]-3 (23) SEQ ID NO: 26; were included just before adding T4-PNK end-labeled AII-J-PPRE oligonucleotide. DNA-protein complexes were separated by electrophoresis on a 4% polyacrylamide gel in 0.25×TBE buffer at 4° C. (43).

[2] = biological target: PPARgamma2 (Homo sapiens, UniProt P37231 P37231:1-505); test: EMSA; homodimer, no RXR; settings: tags: rabbit reticulocyte lysate (Promega); label: 32P (T4-PNK)
Procedure: as §1, §2

[3] = biological target: PPARgamma/RXRalpha heterodimer (hamster haPPARgamma) (hamster / Mus musculus, UniProt P57797;P28700 P57797:1-475,P28700:1-467); test: EMSA; pH 7.9, 40 mM KCl, on ice; settings: tags: rabbit reticulocyte lysate (Promega); label: 32P (T4-PNK)
Procedure: as §1, §2

[4] = biological target: PPARgamma2/RXRalpha heterodimer (Homo sapiens / Mus musculus, UniProt P37231;P28700 P37231:1-505,P28700:1-467); test: EMSA; pH 7.9, 40 mM KCl, on ice; self-competition almost complete; settings: tags: rabbit reticulocyte lysate (Promega); label: 32P (T4-PNK)
Procedure: as §1, §2

[5] = tested on: PPARγ expression; test: PPARγ expression in primary macrophages and monocytic cell lines; type: cell-based
From the text: PPARγ is expressed in a subset of macrophages and negatively regulates the expression of several pro-inflammatory genes in response to its ligands. We recently discovered the presence of PPARγ in human macrophages foam cells of human atherosclerotic lesions. In these cells, PPARγ is present in a pattern correlated with that of oxidation-specific epitopes. Oxidized low-density lipoprotein (LDL) and macrophage colony stimulating factor (MCSF) are known to be present in atherosclerotic lesions. […] Furthermore, phorbol esters induced PPARγ expression.

Sequence of PPARgamma2 (P37231 whole entry, one chain of several): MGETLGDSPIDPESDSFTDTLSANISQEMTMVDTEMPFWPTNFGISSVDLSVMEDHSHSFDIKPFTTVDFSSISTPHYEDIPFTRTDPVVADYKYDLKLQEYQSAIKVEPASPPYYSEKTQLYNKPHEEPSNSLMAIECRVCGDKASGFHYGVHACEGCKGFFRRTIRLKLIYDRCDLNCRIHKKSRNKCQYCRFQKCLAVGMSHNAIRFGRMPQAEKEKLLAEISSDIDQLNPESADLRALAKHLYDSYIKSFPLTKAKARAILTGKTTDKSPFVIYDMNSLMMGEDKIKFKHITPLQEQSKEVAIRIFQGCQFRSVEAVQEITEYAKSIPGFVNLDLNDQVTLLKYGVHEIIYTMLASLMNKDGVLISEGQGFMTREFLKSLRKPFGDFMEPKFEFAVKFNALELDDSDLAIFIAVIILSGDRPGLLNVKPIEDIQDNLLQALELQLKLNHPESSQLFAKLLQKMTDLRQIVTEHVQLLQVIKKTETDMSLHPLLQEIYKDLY
Sequence of PPARgamma2/RXRalpha heterodimer (P37231 whole entry, one chain of several): as above

B1: apoA-II J site PPRE (dsDNA)
DNA 1: GATCCTTCAACCTTTACCCTGGTAGA
DNA 2: TCTACCAGGGTAAAGGTTGAAGGATC
What does the source list for B1?
binding result [1]: no binding; binding result [2]: no binding; binding result [3]: binds; binding result [4]: binds

B2: MCSF: macrophage colony stimulating factor (protein, UniProt P09603 33-554, looked up)
Macrophage colony-stimulating …: EEVSEYCSHMIGSGHLQSLQRLIDSQMETSCQITFEFVDQEQLKDPVCYLKKAFLLVQDIMEDTMRFRDNTPNAIAIVQLQELSLRLKSCFTKDYEEHDKACVRTFYETPLQLLEKVKNVFNETKNLLDKDWNIFSKNCNNSFAECSSQDVVTKPDCNCLYPKAIPSSDPASVSPHQPLAPSMAPVAGLTWEDSEGTEGSSLLPGEQPLHTVDPGSAKQRPPRSTCQSFEPPETPVVKDSTIGGSPQPRPSVGAFNPGMEDILDSAMGTNWVPEEASGEASEIPVPQGTELSPSRPGGGSMQTEPARPSNFLSASSPLPASAKGQQPADVTGTALPRVGPVRPTGQDWNHTPQKTDHPSALLRDPPEPGSPRISSLRPQGLSNPSTLSAQPQLSRSHSSGSVLPLGELEGRRSTRDRRSPAEPEGGPASEGAARPLPRFNSVPLTDTGHERQSEGSFSPQLQESVFHLLVPSVILVLLAVGGLLFYRWRRRSHQEPQRADSPLEQPEGSPLTQDDRQVELPV
How did the PPARγ expression [5] turn out when B2 was run?
Its PPARγ expression is “stimulate PPARγ expression”.

From patent publication US7098025B1, “Human peroxisome proliferator activated receptor gamma (pparγ) gene regulatory sequences and uses therefor” (Ligand Pharmaceuticals Incorporated, priority 1997, dated 2006)
